# Measurements taken from the domain aggregation screens of Martell et al. (2025).
# Test: soluble fraction after stress (log2 fold change); higher = more stays soluble; pooled small domains, quantitative proteomics
# Conditions: stress: 50 degC
# How it was run: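 Quantitative proteomics served as the high-throughput read-out for pooled custom libraries of small protein domains. Each was stressed at 50°C. Aggregation propensity is expressed as the base-two log fold change in soluble protein after stress. A higher value means a larger share of the protein remains in solution.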
row,Sequence,soluble fraction (log2)
1,HMADVYFDGKFLGETPVTVAVSTTGKPAHEISLIRGGYEPWSTTYQGNPRPGQTATVMAILVHA,0.287
2,HMQQNDMTELRALAEKIISENDSVINDYKSGQGSALQFLIGQAMKETKGSANPQVISEIFTDLL,-0.225
3,HMVSNRMVYSDFQQKWINNQVESINVNADKMTIEVTTQDEKKYTVYAPSSMIEFLNEQYPKDDIKIEYVAP,-0.147
4,HMKEIPTKKGDMLEIYEANGKYILKYPTFNITMPEVVKEIPKEAVDSYLAGKHDGEELINYANFGFWKS,-0.185
5,HMNNYFPAYKGSATSIAPALKQMGVNNSYAYRSKIAAVNNITGYRGTPAQNTQMLNLLKQGRLIK,0.362
6,HMKVMTNAELGRIIKEARIARRMTQSEVVGDFITRNMLSQIENGNAAPSMRTLQYLMDVLDIHINIE,-2.58
7,HMENVRKTEWVTISNDKSQTRTTVYFESGNQKLDKHPQIQGFEYQRTYVEGGVKYYLFVEKGTKLDE,-0.166
8,HMNVDIVEITKNSSPNQISKVIDIGAIQIVEDLMSFGIMKAIDTPLEDSEIEQLLEKYNLIVDLIE,-2.33
9,HMGNKDIEILFSEIVEMRNRIIHGFRITSKQGEQILATKTRKKDGNIQFEITKEYLLDFIKKNEELSDMLY,-2.23
10,HMDDVIDVYATYDKSAEGVLSNIQLFSNQKKTTPITPESGKIYIDVEGNYQFRWTGTQYATV,-0.111
11,HMGTSIMIIIVKPETKKERVNDLIHWIESQNLRTHLSTGDYSTIIGVIGDTSKLDSELIRGLDIVENVKRV,-0.318
12,HMNWQLITDPKELRELVQKTIADNEAGTSRLREGDMGPLEFLTGIIMKKTRGLADPTMVKALLKEELNI,0.132
13,HMSPTSSRAAQARIRKMIESESPLKPISDSQLAARLGEEGISIARRTVAKYREQMNILPASQRRGV,-0.146
14,HMKALYHQLVDLLKKRMESGMIPHDKLPSERELTAQYGVSRTTVRLALQELENTGYIYRRHGKGTFVSDI,-2.27
15,HMAWAVDVGVVGLFPGKAVLVIDGGAPRTVPVGANVGGVRLLAVDQGSATVEIGGKRQRLAIGQHAH,-0.402
16,HMRHRITEKDKQFRIGQQVWHSEYGKGMVLSVDGIGSSARLTVSFVSGKLAKIIGTFVSTEP,-1.68
17,HMTKPAEVRIDELMNAAQTLFLAKGVEATTISEIIASVGVAKGTFYHYFESKQHIVEALKKRYID,-1.49
18,HMDNIGKTLGQNQTRQYKVAYAEAAKLPAIIMGLVPLPKPPVVDERLRSLYVTATPEQHRQIETLMNRI,0.11
19,HMKSPAQAAALKKLWAAIKQNEQGEVVEVLFHNRKLTDAGLVHLKGLANLQTLNLYDTKITGAGLVHL,0.0876
20,HMTAKRELILRVFMDSNGKLLSIDDVFMEMRKKRSHRTSKMTVKRAIDLLVDLGLLKEVLFDDDNIKYEYV,-0.0948
21,HMEIYELTDQEQRVLEFIGEGMTNREIAKNMFLAEKTVKNYVSSLLRKLGLERRTQAAAMAVRLSV,-0.0994
22,HMDESLLDYALREIKARIQNGTYPPGTKLSTQEISDSLGISRTPVVAAINRLVAQGVAEAIPRRGTIVAR,0.0188
23,HMHSDSEIEKGYTDDGQKLSNVNGVYMTKSEMYNKGIVEKDPNTGEEVMGRNRVNPVTGELE,0.164

row,Sequence,soluble fraction (log2)
1,HMDIGTRQRIIAAAMELFRQKGMDGMSMRELAERAGVNKGLLHYYFTTKEAIFREVFVHQVEM,-0.15
2,HMSGRVPTADDIAVGMKVYVPRLGGTGTVVTEPVRDKVVIQVGSLRLHAEVAELLLPDEHGRIQVPR,0.00655
3,HMTQEFIVPKVTGYTVEDAMNLSGVKDVFEITVDSTEKSDQPAGIILFQDPKDGSSRKSDLVIHVVVSAGS,-0.137
4,HMDSVAKSFLAEIERFLETAGLEPTTLGKQALGDPSFVFDLRKGRSPSTRTIGKLRVWMQQQNALS,-1.2
5,HMKISELAKKVIASGRVTQWAKHPHIYFVNGMRKVAIELDVNGVFSISMRYYPYDPADRELVENLIRGD,-2.53
6,HMQLTDLSALEAIIKEVLAANPKSVEDYKSGKEKAFGSLVGQAMKATKGKANPETVNSLLRKNLN,0.519
7,HMPLQLPEPMAELARNGETARLAEALKQGLDIDLRDGKGNTLLMIAAYQGRAETVAMLLKAGA,-1.71
8,HMNKEQIASNIAEARKRSGLNQSELARRLGIRPQSVQQWEKGTATPKLDRLTAIAQVLGVSLESLTG,-0.0259
9,HMSVKVFRDQILLNNDSDKMLQLSFSNLFGQKVLETSISPGKSAISTGNLPPGIYFITTSPATGVMRVII,-1.12
10,HMAIPEVDPAKQGVSATQLAALDALAHRNAGEGRVAGMVNVVIRNGEIVYYKATGPRHIDGGAPLKSTDLF,-0.153
11,HMKMQIGEIIRKYRKSNHMTQEEMAERLGVSAPAVNKWENGNSMPDIMLLAPITRLLGISLDELLSFE,-1.24
12,HMSKYLAFTVKKNDELLPFIEKALNGISHTKAKAILANGGAMVNKNTITQYNYPLTPGMTVEISRH,0.131
13,HMNKKEQYQNIISNFLEKMSEEDRLIFNMHFFKSINISQIARSIDREGYYVKTKIENLLADLKSLMIGNNL,-1.95
14,HMRGESFSTLVSILQEMSARKAAQVLNGLSEGLAVEVLRALPSDVAGDILGRMDAAKAAALMEQLST,-0.17
15,HMSAAIGEAVIATDEINVRSGPGLSHEIVSVVSRNESYPILEERGDWVQIQLNGGQKGWVVSWLIKKKS,0.169
16,HMTPTPQQNNILVGQTGTTLTRLAPMGKVRVGEVTAEAKTIDGYINPRQSVEVIGFENTVVIVRAV,0.144
17,HMILNWSEYTRSEIIELARDLSPDKYMIIDDINTYSKMKLLPSQAFIAEMFGSLRQFQKEAWGRE,-1.88
18,HMTFEAKKGYINADMSVNVRETASTSATVIITLNPNTEVKVVGEENDFYKIEYKEYKGYVAKRLISDSQVQ,-0.166
19,HMGIPVSIGQLDFNQARGNLALQVRASDFAALEQLRQRLGQTGESVQLGSASRDGDAVSARVVIGGQ,-0.015
20,HMAKRYFVTTGVRVRTKPDTANSEVLTVLDEGSEIDYKGDYNNEWVKINYNGQEAYIAKQYVRSEE,-0.377
21,HMAMDITLPLAEVRRQSLEQIERQYLNELMSKHLGRINRAAEAAGITTRQLHKLLTKYSIRKEDFK,-0.673
22,HMIPDLPAIGENLYRERKRQQLSMAELAAASGISKAMLSQIEADKVNPTIATLWKIAHALHVDLESLISGG,-0.578
23,HMVADLSGVGDKDIIVDQFIYHEVLPKETIYSIVKSFNVTSEDLNKNNPFLRANGLRIGQVIRIPLKI,-1.08

row,Sequence,soluble fraction (log2)
1,HMDFQTDVFISRFAELKKESGETNKDLQDVFELSLSALINYQTGKRIPDIAFLHKLAQHFGVSADYLLGLS,-0.549
2,HMSQLETEEAKRIVLKDLLRLYNNYNIIELEEDEFDRFITYLNMPYDFLQKTSDYDLAVSIKRMYASY,-2.3
3,HMNNLGSKIKELRIAENLTQEKLAEELNVSFQSISRWENGISTPDISLIPAIARFFGVSTDYLFGLQD,-0.384
4,HMSQSDLASAIGARVTIRLREASGGFRDIVGVLQRFGSGYGELINSKGEALTFSESEIAIWREVKA,-0.358
5,HMTKYREVLRMSAGGFSQRVIASTLSISRNTVASTLKRAREQNLDWEAVEQQRLSEKDIANLLFP,-0.996
6,HMYFMDEETWESKKTLLNDWYEANPEYADRRAISDGLFKIGDLQPDFRRRHWGSIGVIFADIPNSPMG,-0.915
7,HMYGHKLDSYESYVVSELRRWPFLSAPQIHDRLKEHFSDLPLVTPKTVFNFVNRLRLTHSLPKE,-3.13
8,HMKADTSPEAQKKIIAAFEPYSVNKDQIEKLIQRRIDSITPAQVIRLRKILASLKDGMSSPEDWFE,0.0361
9,HMGLDERNLKLFAASLLEQAGKKITESTMTYLLDKTGSDMENIQNEVEKIIGYTMNHTVVTTEDIDAV,-0.271
10,HMKQIEEIIARYTNENTPLMMILSDVQREYGYIPLDVQELISEKTGIPVAEIYGVVTFYSFFSL,-0.572
11,HMTVRLSVSADGKFFWNESQVSEEELFPRLQAEAAKEPQPDLHIRGDKNVRYEFVAQAMAAAQRAGVRKI,-0.404
12,HMLERKFGTSLEIKSLSKFLIENNYKKNAKYLNKLIQVLGTRSENRIIKTFFKQFPEIENIFRNQL,-0.846
13,HMTPEPVTMYITSLTEFRSEPNTEAGIIKLLDAYEEVEMIESRGEWSKISYGDQIGYILSEFLTAENRT,-0.0121
14,HMSNEDAYIKLRNGFLATLSEADLLLFTLREEGKTQKEIADQLGYKTHSAVSKRLQTMRGQFEGYLKTQ,-0.68
15,HMNSIDIENELVKIIEKNGQPMSFDDLVFKLDSLYSTRYKFAKGYIRTIILNSNRIASIGKTSTYSLYKWN,-2.25
16,HMHDLTERQREILQTLASGKMALREILSILSQPPSLRTLRDELYHLKRIGLVDTMGYGRGATWFLTQ,-0.103
17,HMPTKSDLLQWIKDRASKMGGAFTNSGAYALADAGVDGPRALSSEINKLLTYVNWERSVEADDVIRL,-0.13
18,HMKLELSNDFYNKIRLARKENGLTQEDLAEKLNMKVGVIQKIENGVRQTDSNLMKISKFLGVEIYVE,-1.46
19,HMKNLHLVPNVVGMSAKEAKNTLKSFNIKYKPIYGSSNKYDENYIFNQNPRKGKTIKEQEVVTIYISRGAD,-1.07
20,HMDKNNLHSVLQDVPGIGPKRMKELMRAFGSVEGMKKAGLEELAAVKGMNHKAAEALIQFFR,0.199
21,HMKTGIIYGVNGPVIYLKGDTGFKISEMVYVGPEKLVGEVIGLKKHMTTVQVFEETTGLKPGETVIGTGDA,-0.486
22,HMADPVTPQDLIRWSEALAGIARTGLGFTQSLYEQERFEEVLAVAADMRVAAGSSYNPDDLVHEWMKSVG,-0.292
